Experimental data reported in patent publication US20230085357A1, “INJECTABLE HIGH CONCENTRATION PHARMACEUTICAL FORMULATIONS AND METHODS OF MANUFACTURING AND USE THEREOF” (Xeris Pharmaceuticals, Inc., priority 2021, published 2023).

How the values were obtained:
[1] = Bevacizumab pharmacokinetics, plasma concentration after single 100 mg dose IV or SC; assay type: in vivo; conditions: female Gottingen minipigs, mean
[2] = IV product; cited from earlier work
[3] = single dose, plasma, uncorrected

Substance | AUC336/D ([1]; dose-corrected) | AUClast/D ([1]; dose-corrected) | AUC∞/D ([1]; dose-corrected) | Cmax/D ([1]; dose-corrected) | T1/2 ([1]; single dose, plasma) | AUC336 [1, 3] | AUClast [1, 3] | AUC∞ [1, 3] | Cmax [1, 3] | average clearance rate [2] | half-life [2]
Avastin ® | 3084 kg·µg·h/mL/mg | 5215 kg·µg·h/mL/mg | 5357 kg·µg·h/mL/mg | 24.7 kg·µg/mL/mg | 227 h | 28380 µg·h/mL | 47990 µg·h/mL | 49271 µg·h/mL | 230 µg/mL | – | –
bevacizumab: human monoclonal antibody that binds Vascular Endothelial Growth Factor (VEGF), commercialized under the AVASTIN® brand | – | – | – | – | – | – | – | – | – | about 0.262 L/day | about 20 days
